The text below walks through data of patent US20160279193A1 (NORWEGIAN UNIVERSITY OF SCIENCE AND TECHNOLOGY, published 2016).

In experiment [1] the target is PCNA (endogenous, in human cells and their extracts) (human) (UniProt P12004). The experiment in a line: co-IP with anti-PCNA antibody from formaldehyde-crosslinked HaCaT cell extract, gel, Orbitrap MS.
A further experiment deals with MK2 (human) (UniProt P49137). Put plainly: mock co-IP with anti-TOM20 antibody from crosslinked HaCaT cell extract, Orbitrap MS.
A further experiment concerns the target PACT (human) (UniProt O75569). The experiment is described as above.
The next experiment deals with TAO1 (human) (UniProt Q7L7X3). The experiment is described as above.
Experiment [2] addresses T1, PCNA labeled with a fluorescent molecule (UniProt P12004 1-261, labeled with a fluorescent molecule (dye and site not stated)).
T1 construct: also called proliferating cell nuclear antigen
The experiment in a line: microscale thermophoresis, fluorescently labelled PCNA, peptide titrated. Here is the method:
Microscale thermophoresis (MST) was used to determine the dissociation constant for various APIM containing peptides.
PCNA was labeled with a fluorescent molecule. The concentration of PCNA was kept constant, whereas dilutions of each APIM containing peptide were prepared (1:1).
(In general: Microscale thermophoresis detects binding through changes in fluorescence in a small temperature gradient.)

PCNA (endogenous, in human cells and their extracts) (human), sequence (P12004 whole entry): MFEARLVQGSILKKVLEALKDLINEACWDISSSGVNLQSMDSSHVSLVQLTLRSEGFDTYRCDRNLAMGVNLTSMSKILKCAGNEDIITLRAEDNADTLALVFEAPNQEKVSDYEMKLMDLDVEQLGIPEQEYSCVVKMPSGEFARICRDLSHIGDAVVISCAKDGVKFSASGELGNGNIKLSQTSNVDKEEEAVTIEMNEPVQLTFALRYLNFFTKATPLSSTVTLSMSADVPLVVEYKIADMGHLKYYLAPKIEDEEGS
PACT (human), sequence (O75569 whole entry): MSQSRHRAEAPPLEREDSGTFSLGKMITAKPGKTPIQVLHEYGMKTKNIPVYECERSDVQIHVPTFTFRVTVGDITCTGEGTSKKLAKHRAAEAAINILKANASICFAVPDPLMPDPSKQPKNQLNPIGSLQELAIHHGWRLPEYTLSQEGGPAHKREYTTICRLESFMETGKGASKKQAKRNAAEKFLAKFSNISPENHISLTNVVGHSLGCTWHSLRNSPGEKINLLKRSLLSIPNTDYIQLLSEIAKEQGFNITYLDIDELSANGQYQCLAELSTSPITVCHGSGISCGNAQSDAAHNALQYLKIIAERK
MK2 (human), sequence (P49137 whole entry): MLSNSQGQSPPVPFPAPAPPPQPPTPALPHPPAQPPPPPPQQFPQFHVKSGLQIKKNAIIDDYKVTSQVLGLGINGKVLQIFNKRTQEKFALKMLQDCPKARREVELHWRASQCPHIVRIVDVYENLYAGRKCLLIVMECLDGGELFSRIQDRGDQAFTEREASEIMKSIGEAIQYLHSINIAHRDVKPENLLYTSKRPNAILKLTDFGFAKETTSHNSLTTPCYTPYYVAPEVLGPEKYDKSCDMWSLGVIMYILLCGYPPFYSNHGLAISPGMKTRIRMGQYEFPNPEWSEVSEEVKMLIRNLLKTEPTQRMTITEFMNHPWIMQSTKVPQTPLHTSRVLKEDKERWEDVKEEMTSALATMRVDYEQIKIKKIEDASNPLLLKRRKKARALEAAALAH
TAO1 (human), sequence (Q7L7X3 whole entry): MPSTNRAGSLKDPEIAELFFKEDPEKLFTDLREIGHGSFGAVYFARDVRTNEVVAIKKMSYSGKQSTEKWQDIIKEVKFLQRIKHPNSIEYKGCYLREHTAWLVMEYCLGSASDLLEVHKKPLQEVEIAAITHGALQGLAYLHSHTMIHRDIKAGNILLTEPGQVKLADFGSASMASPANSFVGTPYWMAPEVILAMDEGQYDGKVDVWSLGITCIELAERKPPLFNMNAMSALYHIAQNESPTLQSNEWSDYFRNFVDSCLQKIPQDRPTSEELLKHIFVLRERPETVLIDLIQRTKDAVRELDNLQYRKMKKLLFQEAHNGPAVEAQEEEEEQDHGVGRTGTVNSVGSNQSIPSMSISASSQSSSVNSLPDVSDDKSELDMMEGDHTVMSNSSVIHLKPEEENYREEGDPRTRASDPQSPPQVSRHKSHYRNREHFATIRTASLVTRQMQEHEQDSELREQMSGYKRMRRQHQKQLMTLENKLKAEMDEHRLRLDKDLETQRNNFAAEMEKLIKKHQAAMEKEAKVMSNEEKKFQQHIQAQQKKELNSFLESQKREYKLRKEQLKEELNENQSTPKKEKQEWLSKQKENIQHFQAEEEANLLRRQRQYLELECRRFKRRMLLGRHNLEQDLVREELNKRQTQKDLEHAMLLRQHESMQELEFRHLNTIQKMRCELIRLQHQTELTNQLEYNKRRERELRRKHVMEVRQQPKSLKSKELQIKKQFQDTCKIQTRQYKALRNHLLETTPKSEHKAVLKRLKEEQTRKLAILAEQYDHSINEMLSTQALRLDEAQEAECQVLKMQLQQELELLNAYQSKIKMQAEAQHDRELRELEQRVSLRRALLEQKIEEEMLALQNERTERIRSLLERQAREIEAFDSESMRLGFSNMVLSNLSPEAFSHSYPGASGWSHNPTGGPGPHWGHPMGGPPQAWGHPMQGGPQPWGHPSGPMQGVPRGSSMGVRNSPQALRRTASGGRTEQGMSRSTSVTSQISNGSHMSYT
T1 sequence (P12004 whole entry): as the sequence (P12004 whole entry) above

In experiment [1], “MK2 (from UniProt P49137 1-400) (enzyme)” returned a Mascot score (PCNA pull down) of 27.6 and a Sequest score (PCNA pull down) of 6.33.

In experiment [1], “TAO1 (from UniProt Q7L7X3 1-1001) (enzyme)” showed a Mascot score (PCNA pull down) of 49.8 and a Sequest score (PCNA pull down) of 11.1.

In experiment [1], PACT (from UniProt O75569 1-313) showed a Mascot score (PCNA pull down) of 23 and a Sequest score (PCNA pull down) of 2.06.

mock antibody specific for TOM20: the Sequest score (mock anti-TOM20 pull down) worked out at 1.79 with MK2 (human), 1.61 with PACT (human) and 2.09 with TAO1 (human). Further, in the experiment with PACT (human), the Mascot score (mock anti-TOM20 pull down) stood at 25.1.

In turn, TOM20 (from UniProt Q15388 1-145) showed a Mascot-score (PCNA pull down) in experiment [1] of 32.5.

B1: R11 (peptide)
peptide: RRRRRRRRRRR
notes: Cell penetrating peptide part alone, used as a control; also called R11 peptide; R11 (negative control)
As for B1, in experiment [2], the binding result was “no binding”.
